The source of these data is patent US20080003614A1 (University of Texas, published 2008).

The target of one assay is T1, FADD (UniProt Q13158 1-208, limits assumed).
T1 sequence (looked up): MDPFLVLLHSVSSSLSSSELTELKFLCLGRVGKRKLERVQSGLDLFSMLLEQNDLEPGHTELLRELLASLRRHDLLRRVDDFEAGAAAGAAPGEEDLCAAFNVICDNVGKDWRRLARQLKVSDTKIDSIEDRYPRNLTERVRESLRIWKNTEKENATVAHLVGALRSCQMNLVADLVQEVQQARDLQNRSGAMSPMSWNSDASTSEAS
The experiment in a line: co-immunoprecipitation with MAVS antibody, overexpression in HEK293 cells (FIG. 12A).

Another assay concerns the target T2, RIP1 (UniProt Q13546 1-671, limits assumed).
T2 construct: also called RIPI
T2 sequence (looked up): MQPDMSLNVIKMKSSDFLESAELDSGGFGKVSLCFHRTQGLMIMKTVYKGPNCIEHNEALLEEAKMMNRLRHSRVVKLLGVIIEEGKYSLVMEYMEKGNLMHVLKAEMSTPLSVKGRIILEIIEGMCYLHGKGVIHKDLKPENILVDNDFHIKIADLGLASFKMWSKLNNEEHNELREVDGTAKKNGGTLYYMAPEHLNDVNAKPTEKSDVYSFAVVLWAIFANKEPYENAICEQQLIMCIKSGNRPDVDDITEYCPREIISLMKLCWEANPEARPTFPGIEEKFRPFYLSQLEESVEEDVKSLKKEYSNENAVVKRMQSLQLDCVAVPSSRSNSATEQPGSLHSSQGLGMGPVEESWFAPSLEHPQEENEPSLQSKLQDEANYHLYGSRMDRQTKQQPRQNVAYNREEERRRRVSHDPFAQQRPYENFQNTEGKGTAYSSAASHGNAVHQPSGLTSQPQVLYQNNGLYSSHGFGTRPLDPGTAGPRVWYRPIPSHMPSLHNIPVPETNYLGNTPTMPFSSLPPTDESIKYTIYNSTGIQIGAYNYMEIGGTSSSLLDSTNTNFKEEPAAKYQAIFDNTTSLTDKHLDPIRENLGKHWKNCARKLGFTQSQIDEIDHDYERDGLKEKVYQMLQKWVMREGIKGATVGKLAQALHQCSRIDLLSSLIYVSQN
The description is as above.

Experimental for FADD: (§1) (FIG. 12A) Expression vectors encoding HA-MAVS and the indicated FLAG-tagged proteins were co-transfected into HEK293 cells. 36 hours after transfection, cells were lysed in a buffer containing 0.5% Triton-X100 and 150 mM NaCl, and the proteins associated with MAVS were co-immunoprecipitated with the polyclonal antibodies against MAVS or control IgG. After washing three times with a buffer containing 0.1% Triton-X100 and 150 mM NaCl, the immunoprecipitated beads were resuspended in SDS sample buffer, and the eluted proteins immunoblotted with an antibody against FLAG or HA as indicated. Lysate represents 10% of the starting materials used for immunoprecipitation.
Experimental for RIP1: as §1

B1: HA-MAVS (N-terminal HA-tagged Mitochondrial Anti-Viral Signaling protein) (other)
chain: MPFAEDKTYKYICRNFSNFCNVDVVEILPYLPCLTARDQDRLRATCTLSGNRDTLWHLFNTLQRRPGWVEYFIAALRGCELVDLADEVASVYESYQPRTSDRPPDPLEPPSLPAERPGPPTPAAAHSIPYNSCREKEPSYPMPVQETQAPESPGENSEQALQTLSPRAIPRNPDGGPLESSSDLAALSPLTSSGHQEKDTELGSTHTAGATSSLTPSRGPVSPSVSFQPLARSTPRASRLPGPTGSVVSTGTSFSSSSPGLASAGAAEGKQGAESDQAEPIICSSGAEAPANSLPSKVPTTLMPVNTVALKVPANPASVSTVPSKLPTSSKPPGAVPSNALTNPAPSKLPINSTRAGMVPSKVPTSMVLTKVSASTVPTDGSSRNEETPAAPTPAGATGGSSAWLDSSFENRGLGSELSKPGVLASQVDSPFSGCFEDLAISASTSLGMGPCHGPEENEYKSEGTFGIHVAENPSIQLLEGNPGPPADPDGGPRPQADRKFQEREVPCHRPSPGALWLQVAVTGVLVVTLLVVLYRRRLH
notes: also called KIAA1271; pEF-HA-MAVS; not shown: N-terminal HA tag
For the molecule B1, the binding result with FADD and in the assay with RIP1 was “no binding” each time.
